According to publication PMC9352680, “A comprehensive thermodynamic model for RNA binding by the Saccharomyces cerevisiae Pumilio protein PUF4”:

Molecular target: T1, PUF4 RNA-binding domain (Saccharomyces cerevisiae, UniProt P25339 537-888)
T1 sequence: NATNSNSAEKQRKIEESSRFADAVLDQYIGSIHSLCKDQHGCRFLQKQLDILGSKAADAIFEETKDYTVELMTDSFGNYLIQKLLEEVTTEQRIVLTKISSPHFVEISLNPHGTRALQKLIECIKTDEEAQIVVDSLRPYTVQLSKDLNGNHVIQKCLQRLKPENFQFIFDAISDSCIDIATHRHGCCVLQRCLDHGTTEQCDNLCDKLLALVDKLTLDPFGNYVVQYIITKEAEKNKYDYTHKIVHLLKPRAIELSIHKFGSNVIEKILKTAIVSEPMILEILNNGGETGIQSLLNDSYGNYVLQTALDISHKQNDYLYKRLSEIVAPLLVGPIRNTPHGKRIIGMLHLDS
Test: Mg; RNA-MaP; 20 mM Na-HEPES pH 7.4, 30 mM KOAc, 0.75 mM MgCl2, 0.1% Tween-20, 5% glycerol, 0.1 mg/mL BSA, 2 mM DTT; 25 C; 0.0125-409.6 nM protein
Settings: tags: N-His6-TEV cleaved; C-SNAP kept, Cy3B-labelled; label: tethered on chip by stalled RNA polymerase

| Binder | Kd [nM] |
| --- | --- |
| UCUCUUUGUAUAUCUUCUCUU (ssRNA) [Ib_S1_P4E.1_K4.1_C4.1_H4.1_A4.1_F4.1_[T8C]_[A9T]_T4.1] | 13.4 |
| UCUCUUUGUAUAUCCUCUCUU (ssRNA) [Ib_S1_P4E.1_K4.1_C4.1_H4.1_A4.1_F4.1_[T8C]_[A9C]_T4.1] | 18.9 |
| UCUCUUUGUAUAUCGUCUCUU (ssRNA) [Ib_S1_P4E.1_K4.1_C4.1_H4.1_A4.1_F4.1_[T8C]_[A9G]_T4.1] | 26.1 |
| Ic_S2_P4E.1_K4.1_C4.1_H4.1_A4.1_[A6G]_[T7C]_F4.1_[T8A]_[A9G]_T4.1 (ssRNA) RNA: UUUGAUUAAUAUGAUAUCGUUCUUUCUUGUAUGCAGUUCUUUCUCGAUAUCAUAUUAAUCUUU | 1090 |
| Ic_S2_P4E.1_K4.1_C4.1_H4.1_A4.1_[A6G]_F4.1_[T8C]_[A9C]_T4.1 (ssRNA) RNA: UUUGAUUAAUAUGAUAUCGUUCUUUCUUGUAUGUCCUUCUUUCUCGAUAUCAUAUUAAUCUUU | 32.5 |
| Ic_S2_P4E.1_K4.1_C4.1_H4.1_A4.1_[A6C]_[T7C]_F4.1_[T8A]_T4.1 (ssRNA) RNA: UUUGAUUAAUAUGAUAUCGUUCUUUCUUGUAUCCAAUUCUUUCUCGAUAUCAUAUUAAUCUUU | 369 |
| Ic_S2_P4E.1_K4.1_C4.1_H4.1_A4.1_[A6T]_[T7G]_F4.1_[T8C]_[A9T]_T4.1 (ssRNA) RNA: UUUGAUUAAUAUGAUAUCGUUCUUUCUUGUAUUGCUUUCUUUCUCGAUAUCAUAUUAAUCUUU | 536 |
| Ic_S2_P4E.1_K4.1_C4.1_H4.1_A4.1_[A6G]_F4.1_[T8G]_[A9G]_T4.1 (ssRNA) RNA: UUUGAUUAAUAUGAUAUCGUUCUUUCUUGUAUGUGGUUCUUUCUCGAUAUCAUAUUAAUCUUU | 215 |
| Ic_S2_P4E.1_K4.1_C4.1_H4.1_A4.1_[A6C]_F4.1_[T8C]_[A9G]_T4.1 (ssRNA) RNA: UUUGAUUAAUAUGAUAUCGUUCUUUCUUGUAUCUCGUUCUUUCUCGAUAUCAUAUUAAUCUUU | 23.6 |
| Ic_S2_P4E.1_K4.1_C4.1_H4.1_A4.1_[A6T]_[T7G]_F4.1_[T8C]_[A9C]_T4.1 (ssRNA) RNA: UUUGAUUAAUAUGAUAUCGUUCUUUCUUGUAUUGCCUUCUUUCUCGAUAUCAUAUUAAUCUUU | 645 |
| Ic_S2_P4E.1_K4.1_C4.1_H4.1_A4.1_[A6C]_[T7A]_F4.1_[T8C]_T4.1 (ssRNA) RNA: UUUGAUUAAUAUGAUAUCGUUCUUUCUUGUAUCACAUUCUUUCUCGAUAUCAUAUUAAUCUUU | 347 |
| Ic_S2_P4E.1_K4.1_C4.1_H4.1_A4.1_[A6G]_F4.1_[T8C]_[A9T]_T4.1 (ssRNA) RNA: UUUGAUUAAUAUGAUAUCGUUCUUUCUUGUAUGUCUUUCUUUCUCGAUAUCAUAUUAAUCUUU | 57 |
| Ic_S2_P4E.1_K4.1_C4.1_H4.1_A4.1_[A6C]_[T7A]_F4.1_[T8C]_[A9T]_T4.1 (ssRNA) RNA: UUUGAUUAAUAUGAUAUCGUUCUUUCUUGUAUCACUUUCUUUCUCGAUAUCAUAUUAAUCUUU | 76.1 |
| Ic_S2_P4E.1_K4.1_C4.1_H4.1_A4.1_[A6C]_[T7A]_F4.1_[A9G]_T4.1 (ssRNA) RNA: UUUGAUUAAUAUGAUAUCGUUCUUUCUUGUAUCAUGUUCUUUCUCGAUAUCAUAUUAAUCUUU | 4.75 |
| Ic_S2_P4E.1_K4.1_C4.1_H4.1_A4.1_[A6C]_[T7C]_F4.1_[T8G]_[A9G]_T4.1 (ssRNA) RNA: UUUGAUUAAUAUGAUAUCGUUCUUUCUUGUAUCCGGUUCUUUCUCGAUAUCAUAUUAAUCUUU | 866 |
| Ic_S2_P4E.1_K4.1_C4.1_H4.1_A4.1_[A6T]_[T7C]_F4.1_[T8G]_[A9T]_T4.1 (ssRNA) RNA: UUUGAUUAAUAUGAUAUCGUUCUUUCUUGUAUUCGUUUCUUUCUCGAUAUCAUAUUAAUCUUU | 112 |
| Ic_S2_P4E.1_K4.1_C4.1_H4.1_A4.1_[A6C]_[T7C]_F4.1_[T8C]_[A9T]_T4.1 (ssRNA) RNA: UUUGAUUAAUAUGAUAUCGUUCUUUCUUGUAUCCCUUUCUUUCUCGAUAUCAUAUUAAUCUUU | 166 |
| Ic_S2_P4E.1_K4.1_C4.1_H4.1_A4.1_[A6C]_[T7C]_F4.1_[T8G]_[A9T]_T4.1 (ssRNA) RNA: UUUGAUUAAUAUGAUAUCGUUCUUUCUUGUAUCCGUUUCUUUCUCGAUAUCAUAUUAAUCUUU | 149 |
| Ic_S2_P4E.1_K4.1_C4.1_H4.1_A4.1_[A6C]_[T7C]_F4.1_[T8G]_[A9C]_T4.1 (ssRNA) RNA: UUUGAUUAAUAUGAUAUCGUUCUUUCUUGUAUCCGCUUCUUUCUCGAUAUCAUAUUAAUCUUU | 800 |
| Ic_S2_P4E.1_K4.1_C4.1_H4.1_A4.1_[A6G]_F4.1_[T8A]_[A9C]_T4.1 (ssRNA) RNA: UUUGAUUAAUAUGAUAUCGUUCUUUCUUGUAUGUACUUCUUUCUCGAUAUCAUAUUAAUCUUU | 55.8 |
| Ic_S2_P4E.1_K4.1_C4.1_H4.1_A4.1_[A6T]_[T7C]_F4.1_[T8C]_[A9G]_T4.1 (ssRNA) RNA: UUUGAUUAAUAUGAUAUCGUUCUUUCUUGUAUUCCGUUCUUUCUCGAUAUCAUAUUAAUCUUU | 168 |
| Ic_S2_P4E.1_K4.1_C4.1_H4.1_A4.1_[A6C]_[T7A]_F4.1_[A9T]_T4.1 (ssRNA) RNA: UUUGAUUAAUAUGAUAUCGUUCUUUCUUGUAUCAUUUUCUUUCUCGAUAUCAUAUUAAUCUUU | 3.46 |
| Ic_S2_P4E.1_K4.1_C4.1_H4.1_A4.1_[A6G]_F4.1_[T8G]_[A9C]_T4.1 (ssRNA) RNA: UUUGAUUAAUAUGAUAUCGUUCUUUCUUGUAUGUGCUUCUUUCUCGAUAUCAUAUUAAUCUUU | 40 |

| Binder | Kd [nM] |
| --- | --- |
| Ic_S2_P4E.1_K4.1_C4.1_H4.1_A4.1_[A6C]_F4.1_[T8A]_[A9G]_T4.1 (ssRNA) RNA: UUUGAUUAAUAUGAUAUCGUUCUUUCUUGUAUCUAGUUCUUUCUCGAUAUCAUAUUAAUCUUU | 32.9 |
| Ic_S2_P4E.1_K4.1_C4.1_H4.1_A4.1_[A6T]_[T7G]_F4.1_[T8G]_[A9T]_T4.1 (ssRNA) RNA: UUUGAUUAAUAUGAUAUCGUUCUUUCUUGUAUUGGUUUCUUUCUCGAUAUCAUAUUAAUCUUU | 1200 |
| Ic_S2_P4E.1_K4.1_C4.1_H4.1_A4.1_[A6C]_F4.1_[T8C]_[A9C]_T4.1 (ssRNA) RNA: UUUGAUUAAUAUGAUAUCGUUCUUUCUUGUAUCUCCUUCUUUCUCGAUAUCAUAUUAAUCUUU | 28.4 |
| Ic_S2_P4E.1_K4.1_C4.1_H4.1_A4.1_[A6G]_F4.1_[T8G]_[A9T]_T4.1 (ssRNA) RNA: UUUGAUUAAUAUGAUAUCGUUCUUUCUUGUAUGUGUUUCUUUCUCGAUAUCAUAUUAAUCUUU | 17 |
| Ic_S2_P4E.1_K4.1_C4.1_H4.1_A4.1_[A6T]_[T7G]_F4.1_[A9T]_T4.1 (ssRNA) RNA: UUUGAUUAAUAUGAUAUCGUUCUUUCUUGUAUUGUUUUCUUUCUCGAUAUCAUAUUAAUCUUU | 57 |
| Ic_S2_P4E.1_K4.1_C4.1_H4.1_A4.1_[A6C]_[T7C]_F4.1_[T8A]_[A9C]_T4.1 (ssRNA) RNA: UUUGAUUAAUAUGAUAUCGUUCUUUCUUGUAUCCACUUCUUUCUCGAUAUCAUAUUAAUCUUU | 820 |
| Ic_S2_P4E.1_K4.1_C4.1_H4.1_A4.1_[A6G]_[T7C]_F4.1_[T8A]_[A9C]_T4.1 (ssRNA) RNA: UUUGAUUAAUAUGAUAUCGUUCUUUCUUGUAUGCACUUCUUUCUCGAUAUCAUAUUAAUCUUU | 848 |
| Ic_S2_P4E.1_K4.1_C4.1_H4.1_A4.1_[A6G]_[T7C]_F4.1_[A9T]_T4.1 (ssRNA) RNA: UUUGAUUAAUAUGAUAUCGUUCUUUCUUGUAUGCUUUUCUUUCUCGAUAUCAUAUUAAUCUUU | 23.9 |
| Ic_S2_P4E.1_K4.1_C4.1_H4.1_A4.1_[A6C]_F4.1_[T8A]_[A9T]_T4.1 (ssRNA) RNA: UUUGAUUAAUAUGAUAUCGUUCUUUCUUGUAUCUAUUUCUUUCUCGAUAUCAUAUUAAUCUUU | 7.99 |
| Ic_S2_P4E.1_K4.1_C4.1_H4.1_A4.1_[A6C]_[T7A]_F4.1_[T8C]_[A9G]_T4.1 (ssRNA) RNA: UUUGAUUAAUAUGAUAUCGUUCUUUCUUGUAUCACGUUCUUUCUCGAUAUCAUAUUAAUCUUU | 228 |
| Ic_S2_P4E.1_K4.1_C4.1_H4.1_A4.1_[A6C]_[T7A]_F4.1_[T8A]_[A9C]_T4.1 (ssRNA) RNA: UUUGAUUAAUAUGAUAUCGUUCUUUCUUGUAUCAACUUCUUUCUCGAUAUCAUAUUAAUCUUU | 309 |
| Ic_S2_P4E.1_K4.1_C4.1_H4.1_A4.1_[A6C]_[T7G]_F4.1_[A9G]_T4.1 (ssRNA) RNA: UUUGAUUAAUAUGAUAUCGUUCUUUCUUGUAUCGUGUUCUUUCUCGAUAUCAUAUUAAUCUUU | 59.3 |
| Ic_S2_P4E.1_K4.1_C4.1_H4.1_A4.1_[A6T]_[T7G]_F4.1_[T8C]_T4.1 (ssRNA) RNA: UUUGAUUAAUAUGAUAUCGUUCUUUCUUGUAUUGCAUUCUUUCUCGAUAUCAUAUUAAUCUUU | 742 |
| Ic_S2_P4E.1_K4.1_C4.1_H4.1_A4.1_[A6T]_[T7G]_F4.1_[T8G]_[A9C]_T4.1 (ssRNA) RNA: UUUGAUUAAUAUGAUAUCGUUCUUUCUUGUAUUGGCUUCUUUCUCGAUAUCAUAUUAAUCUUU | > 2300 |
| Ic_S2_P4E.1_K4.1_C4.1_H4.1_A4.1_[A6C]_F4.1_[T8C]_[A9T]_T4.1 (ssRNA) RNA: UUUGAUUAAUAUGAUAUCGUUCUUUCUUGUAUCUCUUUCUUUCUCGAUAUCAUAUUAAUCUUU | 17.7 |
| Ic_S2_P4E.1_K4.1_C4.1_H4.1_A4.1_[A6G]_F4.1_[T8A]_[A9T]_T4.1 (ssRNA) RNA: UUUGAUUAAUAUGAUAUCGUUCUUUCUUGUAUGUAUUUCUUUCUCGAUAUCAUAUUAAUCUUU | 26.9 |
| Ic_S2_P4E.1_K4.1_C4.1_H4.1_A4.1_[A6T]_[T7G]_F4.1_[A9C]_T4.1 (ssRNA) RNA: UUUGAUUAAUAUGAUAUCGUUCUUUCUUGUAUUGUCUUCUUUCUCGAUAUCAUAUUAAUCUUU | 127 |
| Ic_S2_P4E.1_K4.1_C4.1_H4.1_A4.1_[A6C]_[T7G]_F4.1_[A9C]_T4.1 (ssRNA) RNA: UUUGAUUAAUAUGAUAUCGUUCUUUCUUGUAUCGUCUUCUUUCUCGAUAUCAUAUUAAUCUUU | 507 |
| Ic_S2_P4E.1_K4.1_C4.1_H4.1_A4.1_[A6C]_F4.1_[T8G]_[A9T]_T4.1 (ssRNA) RNA: UUUGAUUAAUAUGAUAUCGUUCUUUCUUGUAUCUGUUUCUUUCUCGAUAUCAUAUUAAUCUUU | 17.9 |
| Ic_S2_P4E.1_K4.1_C4.1_H4.1_A4.1_[A6G]_[T7C]_F4.1_[T8A]_[A9T]_T4.1 (ssRNA) RNA: UUUGAUUAAUAUGAUAUCGUUCUUUCUUGUAUGCAUUUCUUUCUCGAUAUCAUAUUAAUCUUU | 155 |
| Ic_S2_P4E.1_K4.1_C4.1_H4.1_A4.1_[A6C]_[T7C]_F4.1_[A9C]_T4.1 (ssRNA) RNA: UUUGAUUAAUAUGAUAUCGUUCUUUCUUGUAUCCUCUUCUUUCUCGAUAUCAUAUUAAUCUUU | 27.5 |
| Ic_S2_P4E.1_K4.1_C4.1_H4.1_A4.1_[A6G]_[T7C]_F4.1_[T8A]_T4.1 (ssRNA) RNA: UUUGAUUAAUAUGAUAUCGUUCUUUCUUGUAUGCAAUUCUUUCUCGAUAUCAUAUUAAUCUUU | 239 |
| UCUCUUUGUAUAUGUUCUCUU (ssRNA) [Ic_S1_P4E.1_K4.1_C4.1_H4.1_A4.1_F4.1_[T8G]_[A9T]_T4.1] | 15.6 |
